Test results reported in paper PMC2653023, “Improving the functional expression of a Bacillus licheniformis laccase by random and site-directed mutagenesis” (BMC Biotechnology, 2009).
Substitutions are numbered along the chain they refer to. Names and notes keep the numbering of the source.

Substrate: CCn1c(=NN=c2sc3cc(S(=O)(=O)O)ccc3n2CC)sc2cc(S(=O)(=O)O)ccc21
Assay: purified protein
Assay type: biochemical, Bacillus licheniformis
Settings: 0.1 M citrate/phosphate buffer, pH 4.0, room temperature, 5-500 μM ABTS, co-substrate O2, free enzyme

B1: CotA (Bacillus licheniformis DSM 13 = ATCC 14580) (protein)
chain: MKLEKFVDRLPIPQVLQPQSKSKEMTYYEVTMKEFQQQLHRDLPPTRLFGYNGVYPGPTFEVQKHEKVAVKWLNKLPDRHFLPVDHTLHDDGHHEHEVKTVVHLHGGCTPADSDGYPEAWYTKDFHAKGPFFEREVYEYPNEQDATALWYHDHAMAITRLNVYAGLVGLYFIRDREERSLNLPKGEYEIPLLIQDKSFHEDGSLFYPRQPDNPSPDLPDPSIVPAFCGDTILVNGKVWPFAELEPRKYRFRILNASNTRIFELYFDHDITCHQIGTDGGLLQHPVKVNELVIAPAERCDIIVDFSRAEGKTVTLKKRIGCGGQDADPDTDADIMQFRISKPLKQKDTSSLPRILRKRPFYRRHKINALRNLSLGAAVDQYGRPVLLLNNTKWHEPVTETPALGSTEIWSIINAGRAIHPIHLHLVQFMILDHRPFDIERYQENGELVFTGPAVPPAPNEKGLKDTVKVPPGSVTRIIATFAPYSGRYVWHCHILEHEDYDMMRPLEVTDVRHQ
notes: untagged full-length CotA in pET22b+ (NdeI/EcoRI, own stop codon), recombinant from E. coli BL21(DE3), heat step and Q-Sepharose, ~65 kDa; primer-encoded N-terminus MKLEKFVDR, C-terminus EVTDVRHQ
- Km: 6.5 ± 0.2 µM

B2: CotA (Bacillus licheniformis DSM 13 = ATCC 14580; D500G) (protein)
chain: B1 chain with D500G
notes: as for B1
- Km: 9.5 ± 0.2 µM

B3: CotA (Bacillus licheniformis DSM 13 = ATCC 14580; K316N) (protein)
chain: B1 chain with K316N
notes: as for B1
- Km: 10.0 ± 0.3 µM

B4: CotA (Bacillus licheniformis DSM 13 = ATCC 14580; D500G/K316N) (protein)
chain: B1 chain with K316N, D500G
notes: as for B1
- Km: 8.4 ± 0.2 µM
